A short description of the data set: soluble on expression in E. coli; label from the status in PepcDB or PDB records.
As for “MDHPVQLSIENPAVSMDSTGQILWAVQSEIQAVYLRSLFEQKEANDGERLTLSVKNLGSSEISPQTLAHSSNGHFFMACGDGKYIVYTYKQYDAIALKIRHYGQGLEFVWAAHPNMFAVRESATNVKIKKNFKDHKSIRSDMMLEGISGGPLLALRSNDSLCFFDWESAALVRRIEITSKSVYWSDNREMVAICGDDSFYVFKYSAEAVANATEVTEDGIEDAFKVIGEQAEAVETGFWIGDCFIFTTALTINRINHYAGGEIVTVAHVDRPLCLLGYMAEDSRVYAVDKDLNVISYELFQSDLEYQTATMRRDIGTRGGPQICRICRLPSSANLPNLPSTANFKKVDLPNLPSSANFEICRTQYNFD”, the “soluble on expression in E. coli” value was “not soluble”.
As to “MGSDKIHHHHHHMVASKQGLDLFQASGEPYEIGYRLGELARPVFAGYMRQSRAWQAVRRWRGAPFVHKLREAAHAHFPALLVELDGMAAGLGWTAEDMFLWNCRGELIHNVPDGCTTLAAHVGDTRFIAHNEDGDPFLGERCALVEVRPAGKPGFVSFHYPGSLPGHTFAASRAGVVQAINNLRIRAPVAGVPRMILARAVLDAASLDEALHILRDTPAASGFHHTLGCAGDARLVSVEVSARRCSVQTVPNLYGHANHMIHPGCEAEAQIVTDSSRERQARVNALLPALSRPLQPAALLDVLQDRAPSGLPIYRDDPLDPDGENTLATALFEIGGAGVSMKVYRQGQRAFDAFIARAACGQTGA”, the “soluble on expression in E. coli” value is on record as “not soluble”.
Under “MSLLQEMTIKNFAIIESLSLTFQEGMTVLTGETGAGKSIIIDALGLLVGGRGSADFIRHGEERLELQGLFALAEDNLACRNALIENGIDASDDMVVLERSLFRSGKNSCRINGKLVTTVLLRQIGSKLIDIHSQHEHQELMNEEFHLSLLDRFASDKIKPALTKYQTNFKEYQTIEKEWQNWTKNERELAQRLDMLRFQQQEIENANLQAGEEDRLLEQKNILANFEKLNENLQGAYAAIQGEPGGLEFVGEAMRQMEAAASIHTDYKAVSEAISSSYYMLEDSMSQIRQSLDQLEFQPEELNQIESRLNDLNQLKRKYGKTIEDIIQYEQEISSEMEKLTDSESHVGHLETKLATLKAELTKQANTLTEIRKKAAVTLEKQIKQELNHLYMEKAIFSVRFEANKMELTDSGQDSVVFYMSTNPGEPLKPLAKIASGGELSRMMLALKTIFSRHQGITSIIFDEVDTGVSGRVGQAIAEKIYAVSVGSQVLCISHLPQVAAMANHHYYITKKVQNKRTTTSVTVLKGEEKVEEISRMIAGIEVTELTKQHAKEMIEQAEKVKQTYEGHHHHHH” stands “soluble”.
As to “MVALSNALSRVFGSLAGYKFPSFIQKGINALYVKIFKIDLSEFEPLENYRSLNALFTRSLKKERPFDKSPNICIAPCDALITECAFLDNDSALQIKGMPYKAHELVGEINPLSPSFFYANFYLSPKDYHHYHAPCDLEILEARYFAGKLLPVNKPSLHKNNNLFVGNERVTLVAKDIQGNRLYFVAVGALNVGKMRFNFDKNIQTNAKARFTQTYSYNPPIKVKKGDNLGNFEMGSTIVLFIQNTAFKDLKEKNVKFGESIGEFHANLEHHHHHH”, the “soluble on expression in E. coli” value is on record as “soluble”.
With “MPRIITRPFLFSPLTLCISAVASAAKTAVKRKKLFTAVLALSWAFSVTAAERIVVAGGSLTELIYAMGAGERVVGVDETTSYPPETAKLPHIGYWKQLSSEGILSLRPDSVITWQDAGPQIVLDQLRAQKVNVVTLPRVPATLQQMYANIRQLAKTLQVPEQGEALVTQISQRLERVQQNVATKKAPVKAMFILSAGGSAPQVAGKGSVADAILSLAGAENVATHQQYKSYSAESLIAANPEVIVVTSQMVDGDINRLRSIAGITHTAAWKNQRIITVDQNLILGMGPRIADVVESLHQQLWPQ”, the “soluble on expression in E. coli” value was “not soluble”.
Consider “MSLTESFSTPKFHISPTGMIMEGAQLHIKCTIQVTHLAQEFPEIIIQKDKAIVAHNRHGNKAVYSVMAMVEHSGNYTCKVESSRISKVSSIVVNITELFSKPELESSFTHLDQGERLNLSCSIPGAPPANFTIQKEDTIVSQTQDFTKIASKSDSGTYICTAGIDKVVKKSNTVQIVVCEMLSQPRISYDAQFEVIKGQTIEVRCESISGTLPISYQLLKTSKVLENSTKNSNDPAVFKDNPTEDVEYQCVADNCHSHAKMLSEVLRVKVIAPVDEVQISILSSKVVESGEDIVLQCAVNEGSGPITYKFYREKEGKPFYQMTSNATQAFWTKQKASKEQEGEYYCTAFNRANHASSVPRSKILTVRVIEGHHHHHH”, for which the “soluble on expression in E. coli” value was “not soluble”.

For the origin of these results see the DeepSol protein solubility set.
